These results are taken from patent publication US20190284243A1 (UNIVERSITY OF COPENHAGEN, published 2019).

Ends that are not written are not given here. PEGA1900 = not defined here

B3: hexapeptide HRMVRG (SEQ ID NO: 4) (peptide)
peptide: HRMVRG-PEGA1900
modifications: reading uncertain
notes: also called HRMVRG-PEGA1900; hexapeptide partner

Test [1] deals with B3. The test can be described thus: pairs of beads of two libraries adhering to each other, identified by MSMS. The protocol: This example illustrates how to identify a β-body recognizing a linear peptide. A split-mix library of 21.000.000 β-bodies according to the invention were prepared by combinatorial synthesis as described in Example 4 above. This was performed on 100 μm beads with no fluorescence. A second split mix library of 470.000 hexapeptides were prepared in a similar manner except that this library was prepared on larger 400 μm beads with fluorescence label attached to some functional groups. The two libraries were mixed and pairs of beads adhering to each other in pairs with one large fluorescent and one small non-fluorescent bead were collected and the two peptides were identified by MSMS. […] EGFP is an abbreviation of Enhanced Green Fluorescent Protein.

For test [2], the target named is T1, β-body (2) TTYTYPGDTFTI (SEQ ID NO: 58) (with a fluorescent probe (2-F*) or on beads, by assay).
T1 construct: the assay field says which was which; also called 2-F*; bead-(2)
T1 peptide: TTYTYPGDTFTI
The test can be described thus: fluorescent β-body on beads modified with (2).

In test [3] the target is T2, Enhanced Green Fluorescent Protein (UniProt P42212 1-238 = GFP).
T2 construct: treated as one molecule; also called EGFP; eGFP
The test can be described thus: green fluorescence on HRMVRG-PEGA1900 beads.

B1: β-body KTGTQNLTGPGRTHTQTATEG (SEQ ID NO: 3) (peptide)
peptide: KTGTQNLTGPGRTHTQTATEG
notes: Found from a one-bead-one-compound library K(TX)4PG(XT)4EG
For B1, the binding result in test [1] was “binds”.

B2: β-body (3) TFTFTFPGLTRTHT (SEQ ID NO: 59) (designed binder)
peptide: TFTFTFPGLTRTHT
modifications: also: with a fluorescent probe, place not given here
notes: The text calls it a modified version of (2); also called fluorescent-(3)
As for B2, the “fold reduction of binding against fluorescent-(1)” value in test [2] stood at 7 fold.

With B3, in test [3], the binding result is “no binding”.
